# Assay results: PMC2818353
# Target: YAP (WW1+WW2) protein fragment, recombinant 104-amino acid polypeptide
# Assay: ITC
substance,measurement,value
Smad1 peptide extended to include S206 and S214 (unphosphorylated) and the PY motif,fold increase of the interaction over the Smad1 peptide with only the PY motif,2.5 fold
